Values of other authors in PMC5672155.

Columns and labels:
Sec62 (Homo sapiens) = Sec62 (Homo sapiens) (UniProt Q99442)
LC3 (Homo sapiens) = LC3 (Homo sapiens) (UniProt Q9GZQ8)
Sec63 (Homo sapiens) = Sec63 (Homo sapiens) (UniProt Q9UGP8)
Sec61α (Homo sapiens) = Sec61α (Homo sapiens) (UniProt P61619)
Chain of UniProt P61619 (P61619 whole entry): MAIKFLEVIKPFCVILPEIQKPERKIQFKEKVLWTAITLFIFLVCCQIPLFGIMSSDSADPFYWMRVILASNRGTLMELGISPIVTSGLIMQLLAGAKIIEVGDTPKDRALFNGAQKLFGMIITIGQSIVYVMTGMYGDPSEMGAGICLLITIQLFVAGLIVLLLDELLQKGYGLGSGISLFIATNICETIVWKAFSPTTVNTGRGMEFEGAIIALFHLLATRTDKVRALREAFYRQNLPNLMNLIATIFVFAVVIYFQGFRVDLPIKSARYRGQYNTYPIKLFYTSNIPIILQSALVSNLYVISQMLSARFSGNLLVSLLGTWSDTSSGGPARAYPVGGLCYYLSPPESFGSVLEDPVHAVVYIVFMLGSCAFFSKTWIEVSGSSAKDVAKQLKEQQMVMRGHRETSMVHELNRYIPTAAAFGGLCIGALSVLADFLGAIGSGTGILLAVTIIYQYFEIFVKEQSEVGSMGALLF

Chain of UniProt Q99442 (Q99442 whole entry): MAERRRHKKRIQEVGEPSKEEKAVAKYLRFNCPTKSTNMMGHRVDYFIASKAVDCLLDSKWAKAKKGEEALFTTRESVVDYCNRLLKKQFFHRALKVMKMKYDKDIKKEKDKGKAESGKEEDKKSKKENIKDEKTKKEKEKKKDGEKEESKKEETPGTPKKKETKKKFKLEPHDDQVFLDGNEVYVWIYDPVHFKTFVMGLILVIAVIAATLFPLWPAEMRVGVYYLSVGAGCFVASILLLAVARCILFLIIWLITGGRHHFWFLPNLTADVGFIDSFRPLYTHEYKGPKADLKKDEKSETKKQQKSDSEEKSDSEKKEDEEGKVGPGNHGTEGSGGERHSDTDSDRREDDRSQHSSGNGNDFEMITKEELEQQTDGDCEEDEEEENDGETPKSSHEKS

## Sec63 (from UniProt Q9UGP8)
Sec62 (Homo sapiens)
  Kd: 0.005 µM

## Sec62 (from UniProt Q99442)
LC3 (Homo sapiens)
  Kd: 20 µM

## BiP (from UniProt P11021)
Sec63 (Homo sapiens)
  Kd: 5 µM
Sec61α (Homo sapiens)
  Kd: 500 µM
